Patent US20230203158A1 (FLAGSHIP PIONEERING INNOVATIONS VII, published 2023)

T1: Murine DSG1 (NCBI accession NP_034209.2) with a c-Myc epitope tag at the C terminus, transiently expressed in … (mouse, UniProt Q61495 50-1057)
T1 construct: whole, on cells; also called mouse DSG1; murine desmoglein-1
T1 sequence (looked up): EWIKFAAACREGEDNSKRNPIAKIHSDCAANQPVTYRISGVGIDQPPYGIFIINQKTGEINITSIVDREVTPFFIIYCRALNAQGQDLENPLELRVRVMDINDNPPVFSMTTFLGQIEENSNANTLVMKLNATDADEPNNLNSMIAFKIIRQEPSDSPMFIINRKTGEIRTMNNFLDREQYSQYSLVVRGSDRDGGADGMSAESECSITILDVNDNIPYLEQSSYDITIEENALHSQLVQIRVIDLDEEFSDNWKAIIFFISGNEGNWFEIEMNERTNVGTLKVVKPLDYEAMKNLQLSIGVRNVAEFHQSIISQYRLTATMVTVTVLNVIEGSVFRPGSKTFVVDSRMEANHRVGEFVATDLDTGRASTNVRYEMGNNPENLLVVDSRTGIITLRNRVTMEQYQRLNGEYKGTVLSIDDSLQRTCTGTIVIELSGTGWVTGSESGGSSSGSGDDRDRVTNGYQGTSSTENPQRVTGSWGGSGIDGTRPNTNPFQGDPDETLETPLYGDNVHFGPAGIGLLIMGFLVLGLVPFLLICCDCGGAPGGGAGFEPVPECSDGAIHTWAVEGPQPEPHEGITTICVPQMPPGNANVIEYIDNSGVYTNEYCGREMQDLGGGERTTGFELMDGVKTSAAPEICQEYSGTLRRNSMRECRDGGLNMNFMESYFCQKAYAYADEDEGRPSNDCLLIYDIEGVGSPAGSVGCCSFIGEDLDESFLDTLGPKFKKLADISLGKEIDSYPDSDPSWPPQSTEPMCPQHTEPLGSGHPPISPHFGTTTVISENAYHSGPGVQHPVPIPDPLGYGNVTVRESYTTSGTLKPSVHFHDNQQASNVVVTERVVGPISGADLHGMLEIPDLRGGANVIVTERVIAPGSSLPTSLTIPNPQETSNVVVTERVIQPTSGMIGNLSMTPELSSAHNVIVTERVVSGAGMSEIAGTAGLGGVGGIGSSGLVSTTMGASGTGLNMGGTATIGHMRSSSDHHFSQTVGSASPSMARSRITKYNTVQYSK

T2: recombinant His-tagged human IL-10Ra (Creative Biomart) (human, UniProt Q13651 22-235)
T2 construct: also called IL-10 receptor alpha; not shown: His tag
T2 sequence (looked up): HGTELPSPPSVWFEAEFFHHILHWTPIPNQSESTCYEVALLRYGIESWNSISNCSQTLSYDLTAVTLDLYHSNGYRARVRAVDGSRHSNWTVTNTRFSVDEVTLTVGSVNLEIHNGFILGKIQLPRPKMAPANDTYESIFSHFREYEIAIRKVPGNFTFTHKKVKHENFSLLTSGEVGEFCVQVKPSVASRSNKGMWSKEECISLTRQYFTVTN


How the values were obtained:
[1] = biological target: T1, Murine DSG1 (NCBI accession …); assay: flow cytometry on RAW 264.7 cells transiently expressing murine DSG1
Source text: Murine DSG1 (NCBI accession NP_034209.2) with a c-Myc epitope tag at the protein C terminus was transiently expressed in RAW 264.7 cells using LIPOFECTAMINE™ 3000 (ThermoFisher Scientific) according to the manufacturer's protocol.

[2] = biological target: T2, recombinant His-tagged human IL-10Ra …; assay: ELISA, His-tagged human IL-10Ra coated at 1 µg/mL
Experimental: To test the binding of the IL-10/anti-DSG1 ANDbodies to IL-10 receptor alpha (IL-10Ra) by ELISA, recombinant His-tagged human IL-10Ra (Creative Biomart) was coated on NUNC-IMMUNO™ MAXISORP™ ELISA plates at 1 μg/mL concentration overnight. The next day, coated antigen was removed and the wells were blocked with 1% IgG-free BSA followed by incubation with 11 three-fold serially diluted anti-IL-10/anti-DSG1 ANDbodies (as provided above) with a starting concentration of 30 μg/mL. Bound antibody was detected with peroxidase-conjugated anti-human IgG antibodies with TMB and acid stop reagents.

[3] = biological target: IL-10 receptor of HEK-BLUE IL-10 cells (the cells express all the components of the IL-10 signaling pathway); assay: cell-based or functional assay

binding result [1] | binding result [2] | EC50 (pM), HEK-BLUE IL-10 signaling assay (SEAP) [3] [pM] | Binder
binds | – | – | PRO004 (anti-DSG1 antibody 3-07/1e on a human IgG1 LALA-PG backbone, lambda light chain) (antibody, V domains shown, human IgG1 with L234A, L235A, P329G) VH: QVQLVQSGGGLVQPGGSLRVSCAASGFTSNIFWMSWVRQAPGKGLEWVANIDEDGSEKNYVDSVKGRFTISRDNAKNSLYLQMNSLRAEDTAVYYCARESFYYGSGTYFDFWGQGTLVTVSS VL: ELVVTQPPSVSGAPGQRVTISCTGSSSNIGAGYDVHWYQQLPGTAPKLLIYGNKNRPSGVPDRFSGSKSGTSASLAITGLRAEDEADYYCQSFDSSLGWVFGGGTQLTVLG
– | binds | 50 | IL-10 Fc (Creative Biomart IL10-326H), recombinant human IL-10 fused to a human Fc domain (Fc fusion, UniProt P22301 19-178, looked up, also called positive control IL-10 Fc; hIL-10 Fc fusion; not shown: human Fc domain and any linker of the bought product) SPGQGTQSENSCTHFPGNLPNMLRDLRDAFSRVKTFFQMKDQLDNLLLKESLLEDFKGYLGCQALSEMIQFYLEEVMPQAENQDPDIKAHVNSLGENLKTLRLRLRRCHRFLPCENKSKAVEQVKNAFNKLQEKGIYKAMSEFDIFINYIEAYMTMKIRN
